{"source": "paper PMC11876737", "about": "“Side-by-Side Comparison of the In Vivo Performance of [^212Pb]Pb-DOTAMTATE and Other SSTR2-Targeting Compounds” (Journal of Nuclear Medicine, 2025)", "key": {"[1]": {"system": "SSTR2-overexpressing tumors, AR42J", "experiment": "Biodistribution of ^212Pb SSTR2 analogs in AR42J tumor-bearing mice", "type": "in vivo, athymic nude female mice", "procedure": "(§1) The background was automatically subtracted from the counts. A standard was also used for decay correction to time of injection or time of collection. The percent injected dose per gram (%ID/g) was calculated for each organ collected.  FIGURE 2. In vivo distribution of ^212Pb-radiolabeled SSTR2 analogs in athymic nude female mice carrying subcutaneous AR42J tumors. […] Tissue uptake is expressed as %ID/g ± SD decay corrected to time of injection (n = 4-5). In our study, we propose to use the integral of the time-activity curve, also known as the AUC, as a surrogate measure for estimating the absorbed dose. We calculated all SSTR2 analogs' AUC for kidneys and tumors including tumor-to-kidney ratios (T/K AUC ratio) (Figs. 3 and 4). We observed distinct AUC patterns and consequently distinct T/K AUC ratios across the different compounds."}, "[2]": {"experiment": "Biodistribution of ^212Pb SSTR2 analogs in AR42J tumor-bearing mice", "type": "in vivo, athymic nude female mice", "details": "female, athymic nude, mouse, in vivo, iv, total radioactivity", "procedure": "as §1"}, "[3]": {"experiment": "^212Pb chelate RCY after 24 h at room temperature (instant thin-layer chromatography)", "type": "physicochemical", "details": "24 h at RT; 444 MBq/50 μg (27.5 nmol); triplicate ± SD", "procedure": "The radioisotope-free compounds were diluted in metal-free water at needed concentrations and were stored at -20°C. ^212Pb was produced using ^224Ra generators (Orano Med LLC). Chelation was performed by incubating 27.5 nmol of peptide per 444 MBq of ^212Pb for 10 min at room temperature in 0.4 M ammonium acetate buffer, with a pH of 6.1. Radiochemical purity, assayed by instant thin-layer chromatography was used to confirm that ^212Pb chelation was greater than 95%. Radiolabeled peptides were spotted onto an instant thin-layer chromatography strip and allowed to migrate in a 22% citrate buffer. The instant thin-layer chromatography strip was then cut in half and counted using a calibrated Perkin Elmer Wizard2 2470 automatic γ-counter with an energy window of 185-250 keV considering ^212Pb major emitted γ-rays (238 keV). Samples were diluted to appropriate activity before injection in a buffer containing ascorbic acid, ethanol, and polysorbate-20. […], and PSC-PEG2-TATE (Fig. 1) were radiolabeled at a specific activity of 444 MBq per 50 μg (or 27.5 nmol) in a chelation buffer containing 5% ethanol, 20 mM ascorbic acid, and 0.02% polysorbate 80. The chelation of ^212Pb appears to occur more slowly with the PSC than with the DOTA and DOTAM chelators. […] The RCY remained above 95% at 24 h for all compounds."}, "somatostatin receptor 5": {"system": "somatostatin receptor 5", "set-up": "method as in PMID 10774879", "details": "cited from earlier work"}, "somatostatin receptor 3": {"system": "somatostatin receptor 3", "set-up": "method as in PMID 10774879", "details": "cited from earlier work"}, "SSTR2": {"system": "SSTR2", "details": "cited from earlier work"}, "[4]": {"details": "time-activity curve of %ID/g at 1, 4, 24 h, decay corrected to time of collection"}}, "note": "Like-named read-outs stand apart in the source and are kept apart here. Positions of bridges follow the written chain, without caps; N, C: chain ends. Non-standard residues stand in square brackets, D forms with d. Residues, ends and D or L forms follow the SMILES beside them. *: point of attachment. DO3AM = NC(=O)CN1CCN(CC(N)=O)CCN(CC(=O)*)CCN(CC(N)=O)CC1; dPhe(4-NHCONH2) = NC(=O)Nc1ccc(C[C@@H](N)C(=O)O)cc1; Dihydroorotyl(S) = O=C1C[C@@H](C(=O)*)NC(=O)N1; Phe(4-Cl) = N[C@@H](Cc1ccc(Cl)cc1)C(=O)O; Phe(4-NH2) = Nc1ccc(C[C@H](N)C(=O)O)cc1", "data": [{"compound": "C[C@@H](O)[C@@H]1NC(=O)[C@H](CCCCN)NC(=O)[C@@H](Cc2c[nH]c3ccccc23)NC(=O)[C@H](Cc2ccc(O)cc2)NC(=O)[C@@H](NC(=O)[C@@H](Cc2ccccc2)NC(=O)CCOCCOCCNC(=O)CN2CCN(CC(=O)O)CCN(CC(N)=O)CCN(CC(=O)O)CC2)CSSC[C@@H](C(=O)N[C@H](CO)[C@@H](C)O)NC1=O", "note": "[^212Pb-PSC-PEG2-TOC, PSC-amino-PEG2-acid-D-Phe-cyclo(Cys-Tyr-D-Trp-Lys-Thr-Cys)Thr-OH, metal not drawn, reference compound]", "values": [{"measurement": "AR42J tumor AUC", "setting": "[1]; mouse, in vivo", "result": "290 ± 45"}, {"measurement": "Kidney AUC", "setting": "[1]; mouse, in vivo", "result": "320 ± 51"}]}, {"compound": "C[C@@H](O)[C@H](NC(=O)[C@@H]1CSSC[C@H](NC(=O)[C@@H](Cc2ccccc2)NC(=O)CCOCCOCCNC(=O)CN2CCN(CC(=O)O)CCN(CC(N)=O)CCN(CC(=O)O)CC2)C(=O)N[C@@H](Cc2ccc(O)cc2)C(=O)N[C@H](Cc2c[nH]c3ccccc23)C(=O)N[C@@H](CCCCN)C(=O)N[C@@H]([C@@H](C)O)C(=O)N1)C(=O)O", "note": "[[^212Pb]Pb-PSC-PEG2-TATE, PSC-amino-PEG2-acid-D-Phe-cyclo(Cys-Tyr-D-Trp-Lys-Thr-Cys)Thr-COOH, metal not drawn]", "values": [{"measurement": "AR42J tumor AUC", "setting": "[1]; mouse, in vivo", "result": "274 ± 59"}, {"measurement": "Kidney AUC", "setting": "[1]; mouse, in vivo", "result": "290 ± 27"}]}, {"compound": "C[C@@H](O)[C@H](NC(=O)[C@@H]1CSSC[C@H](NC(=O)[C@@H](Cc2ccccc2)NC(=O)CN2CCN(CC(=O)O)CCN(CC(=O)O)CCN(CC(=O)O)CC2)C(=O)N[C@@H](Cc2ccc(O)cc2)C(=O)N[C@H](Cc2c[nH]c3ccccc23)C(=O)N[C@@H](CCCCN)C(=O)N[C@@H]([C@@H](C)O)C(=O)N1)C(=O)O", "note": "[[^212Pb]Pb-DOTATATE, metal not drawn, reference compound]", "values": [{"measurement": "tissue uptake at 4 h", "setting": "[2]; 444 kBq, 4 h after injection, i.v., AR42J tumor, read-out: average tumor uptake", "result": "~10", "unit": "%ID/g"}, {"measurement": "Tumor AUC / Kidney AUC ratio (T/K AUC ratio)", "setting": "[1]; decay corrected to time of collection", "result": 0.73}, {"measurement": "AR42J tumor AUC", "setting": "[1]; [4]", "result": "122 ± 12"}, {"measurement": "Kidney AUC", "setting": "[1]; [4]", "result": "161 ± 21"}, {"measurement": "biodistribution profile / accumulation in healthy tissues", "setting": "[1]; tumor-bearing female mice", "result": "distinctly cleaner"}, {"measurement": "RCY", "setting": "[3]", "result": "98.3% ± 1.2%"}]}, {"compound": "C[C@@H](O)[C@H](NC(=O)[C@@H]1CSSC[C@H](NC(=O)[C@@H](Cc2ccccc2)NC(=O)CN2CCN(CC(=O)O)CCN(CC(N)=O)CCN(CC(=O)O)CC2)C(=O)N[C@@H](Cc2ccc(O)cc2)C(=O)N[C@H](Cc2c[nH]c3ccccc23)C(=O)N[C@@H](CCCCN)C(=O)N[C@@H]([C@@H](C)O)C(=O)N1)C(=O)O", "note": "[[^212Pb]Pb-PSC-TATE, PSC-D-Phe-cyclo(Cys-Tyr-D-Trp-Lys-Thr-Cys)Thr-COOH, metal not drawn]", "values": [{"measurement": "AR42J tumor AUC", "setting": "[1]; mouse, in vivo", "result": "177 ± 22"}, {"measurement": "Kidney AUC", "setting": "[1]; mouse, in vivo", "result": "156 ± 24"}]}, {"compound": "C[C@@H](O)[C@H](NC(=O)[C@@H]1CSSC[C@H](NC(=O)[C@@H](Cc2ccccc2)NC(=O)CN2CCN(CC(N)=O)CCN(CC(N)=O)CCN(CC(N)=O)CC2)C(=O)N[C@@H](Cc2ccc(O)cc2)C(=O)N[C@H](Cc2c[nH]c3ccccc23)C(=O)N[C@@H](CCCCN)C(=O)N[C@@H]([C@@H](C)O)C(=O)N1)C(=O)O", "note": "[[^212Pb]Pb-DOTAMTATE, metal not drawn]", "values": [{"measurement": "tissue uptake at 4 h", "setting": "[2]", "result": "~50", "unit": "%ID/g"}, {"measurement": "AR42J tumor AUC", "setting": "[1]; mouse, in vivo", "result": "583 ± 58"}, {"measurement": "Kidney AUC", "setting": "[1]; mouse, in vivo", "result": "186 ± 28"}, {"measurement": "uptake in healthy tissues such as the stomach, the lungs, and spleen", "setting": "[1]; mouse, in vivo", "result": "higher compared with uptake of the other SSTR2 analogs"}]}, {"compound": "octreotide [TOC]", "values": [{"measurement": "affinity for somatostatin receptor 5", "setting": "somatostatin receptor 5", "result": "high affinity"}, {"measurement": "affinity for somatostatin receptor 3", "setting": "somatostatin receptor 3", "result": "high affinity"}, {"measurement": "affinity for SSTR2", "setting": "SSTR2", "result": "high affinity"}]}, {"compound": "octreotate", "values": [{"measurement": "affinity for somatostatin receptor 5", "setting": "somatostatin receptor 5", "result": "moderate affinity"}, {"measurement": "affinity for somatostatin receptor 3", "setting": "somatostatin receptor 3", "result": "minimal binding"}, {"measurement": "binding to SSTR2 relative to TOC", "setting": "SSTR2", "result": "approximately 10 fold"}]}, {"compound": "C[C@@H](O)[C@@H]1NC(=O)[C@H](CCCCN)NC(=O)[C@@H](Cc2ccc(NC(N)=O)cc2)NC(=O)[C@H](Cc2ccc(NC(=O)[C@@H]3CC(=O)NC(=O)N3)cc2)NC(=O)[C@H](NC(=O)[C@H](Cc2ccc(Cl)cc2)NC(=O)CN2CCN(CC(N)=O)CCN(CC(N)=O)CCN(CC(N)=O)CC2)CSSC[C@@H](C(=O)N[C@H](Cc2ccc(O)cc2)C(N)=O)NC1=O", "note": "[[^212Pb]Pb-DOTAM-JR11, DOTAM-p-Cl-Phe-cyclo(D-Cys-Aph(Hor)-D-Aph(Cbm)-Lys-Thr-Cys)D-Tyr-ONH2, metal not drawn] (DO3AM-[Phe(4-Cl)][dC][Phe(4-NH2)](Dihydroorotyl(S))[dPhe(4-NHCONH2)]KTC[dY]-NH2; disulfide 2-7)", "values": [{"measurement": "AR42J tumor AUC", "setting": "[1]; mouse, in vivo", "result": "363 ± 75"}, {"measurement": "Kidney AUC", "setting": "[1]; mouse, in vivo", "result": "274 ± 19"}, {"measurement": "tumor retention", "setting": "[1]; mouse, in vivo", "result": "favorable tumor retention"}, {"measurement": "uptake in healthy tissues such as the stomach, the lungs, and spleen", "setting": "[1]; mouse, in vivo", "result": "higher compared with uptake of the other SSTR2 analogs"}]}, {"compound": "C[C@@H](O)[C@@H]1NC(=O)[C@H](CCCCN)NC(=O)[C@@H](Cc2c[nH]c3ccccc23)NC(=O)[C@H](Cc2ccc(O)cc2)NC(=O)[C@@H](NC(=O)[C@@H](Cc2ccccc2)NC(=O)CN2CCN(CC(=O)O)CCN(CC(N)=O)CCN(CC(=O)O)CC2)CSSC[C@@H](C(=O)N[C@H](CO)[C@@H](C)O)NC1=O", "note": "[^212Pb-PSC-TOC, PSC-D-Phe-cyclo(Cys-Tyr-D-Trp-Lys-Thr-Cys)Thr-OH, metal not drawn]", "values": [{"measurement": "AR42J tumor AUC", "setting": "[1]; mouse, in vivo", "result": "353 ± 52"}, {"measurement": "Kidney AUC", "setting": "[1]; mouse, in vivo", "result": "377 ± 34"}]}]}
